Results taken from article doi:10.1101/416081v1.

How the values were obtained:
Test in all cases: purified protein
[1] = system: CCCC(=O)Oc1ccc([N+](=O)[O-])cc1; conditions: pH 8.0; 25.0 °C
CC(=O)Oc1ccccc1 = conditions: pH 8.0; 25.0 °C
O=C1CCc2ccccc2O1 = conditions: pH 7.4; 25.0 °C
[2] = system: CC(=O)Oc1ccc([N+](=O)[O-])cc1; conditions: pH 8.0; 25.0 °C

reTAPON1-LIKE (Trichoderma atroviride)
Km [1]: 1580 ± 120 µM | Km (CC(=O)Oc1ccccc1): 890 ± 60 µM | Km (O=C1CCc2ccccc2O1): 730 ± 10 µM | Km [2]: 1120 ± 140 µM
